The assay addresses HA-EGFP-Plk1, P53350. Briefly: ELISA competition. The settings on record: remark: other sources report otherwise.

Non-standard residues stand in square brackets, D forms with d. No end group written: not given here. pT = C[C@@H](OP(=O)(O)O)[C@H](N)C(=O)O A value given as a limit tells only on which side of the number the result lay.

Sequence of HA-EGFP-Plk1, P53350 (P53350 whole entry): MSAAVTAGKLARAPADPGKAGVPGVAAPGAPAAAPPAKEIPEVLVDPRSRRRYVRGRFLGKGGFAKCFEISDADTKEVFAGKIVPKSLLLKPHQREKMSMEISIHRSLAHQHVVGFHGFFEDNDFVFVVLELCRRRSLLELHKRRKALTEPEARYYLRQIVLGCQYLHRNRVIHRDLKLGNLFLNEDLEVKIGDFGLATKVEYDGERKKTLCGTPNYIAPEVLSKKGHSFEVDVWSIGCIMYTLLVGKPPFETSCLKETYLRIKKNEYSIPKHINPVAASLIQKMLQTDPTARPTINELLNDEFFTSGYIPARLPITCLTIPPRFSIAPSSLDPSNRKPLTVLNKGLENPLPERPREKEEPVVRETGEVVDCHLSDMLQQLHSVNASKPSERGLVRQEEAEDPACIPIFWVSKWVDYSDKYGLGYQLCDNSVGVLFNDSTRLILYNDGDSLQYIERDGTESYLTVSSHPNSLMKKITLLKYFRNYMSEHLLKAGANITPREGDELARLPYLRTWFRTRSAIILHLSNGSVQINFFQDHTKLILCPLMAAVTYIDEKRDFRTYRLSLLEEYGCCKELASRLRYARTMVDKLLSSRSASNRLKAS

B1: peptide 11 (Example 12), S/A mutant of 8 (peptide)
peptide: PLHA[pT]
modifications: also: Pro 1 modified as in ether analogue 8 (structure not given here)
Consider B1, for which the fold loss of binding affinity was greater than 100 fold.

B2: peptide 9 (Example 12), S/A mutant of 7 (peptide)
peptide: PLHA[pT]
modifications: also: Pro 1 modified as in ether analogue 7 (structure not given here)
B2 displayed a fold loss of binding affinity greater than 100 fold.

B3: peptide 5 (Example 15), S/A mutant of 3l (peptide)
peptide: PLHA[pT]
modifications: also: further groups not given here
Take B3: the fold decrease in binding against 3l came to 100 fold.
